# Results published in the RNAGym collection of RNA variant scans (doi:10.1073/pnas.2313332121).
# B1: TPR t1 (parent)
# chain: GACCAAUCUGCCCUCAGAGCUCGAGAACAUCUUCGGAUGCAGAGGAGGCAGGCUUCGGUGGCGCGAUAGCGCCAACGUCCUCAACCUCCAAUGCAUCCCACCACAUGAUGAUGCCUGAAGAGCCUUGGUUUUUUG
# Variants of: B1
# Experiment: polymerase ribozyme fitness, log enrichment relative to wild type (log ratio); higher = more active; in vitro selection for triplet polymerase activity
# How it was run: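 Both subunits of a heterodimeric triplet polymerase ribozyme were given their own mutant library, built by PCR and transcribed. Each library was annealed with a biotinylated primer, the partner subunit and triplets, incubated frozen at −7 °C, and its extended constructs gel-excised, captured on streptavidin beads and amplified by RT-PCR, all in one round done in triplicate. Fitness is the logarithm of genotype enrichment relative to wild-type enrichment, with replicates averaged by inverse-variance weighting. That logarithm is base 2, and Illumina-sequenced genotypes needed ≥10 input reads and ≥1 read per output.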
row,Variant,polymerase ribozyme fitness (log ratio)
1,A26U G47U C64A C85U G107C A108G G110C,-6.9
2,C28A G63A,-5.86
3,A27U C62U G117U C123G,-5.03
4,C28U C34U C73G C102U G110A,-0.0797
5,C28A C88G G120A,-3.89
6,C28U G39U A111C,-6.59
7,A26U A84C C102U C115A U133G,-6.15
8,A26G G42C U59C G113A,-5.32
9,A26U A41C,-4.03
10,A26U U32C C94A,-4.33
11,A26G G44C,-2.38
12,A26G U112G,-0.342
13,C28A G61A G93A C123A,-3.78
14,G25A G71A C79G C115U,-7.59
15,C28U G71U,-2.6
16,G25A C64G U81A C114A,-5.93
17,A27U C88A,-4.4
18,A24U G60A,-4.63
19,A26U G48A C72U,-3.67
20,C28U G135U,-2.44
21,A27U C85A C86A C101G,-5.15

row,Variant,polymerase ribozyme fitness (log ratio)
1,A27C G47U C73U G77U C86G C123A U126A,-4.61
2,C28U G52U G120C,-2.81
3,A26C C88U,-5.08
4,A27U A90U,-5.37
5,A26U G57U,-4.04
6,A27C C124A,-0.901
7,A29C A75G U78G,-2.56
8,A27G A46G C72U,-3.52
9,A27G A105C,-3.41
10,A26G C56U,-1.28
11,A27G G51A U78C,-3.93
12,C28U G45U C114U,-4.18
13,A27G G51U G61A U92A,-6.49
14,A27U C104U A111C G120C,-6.95
15,C28G G42C G52C G69U G107A A108G C124G,-7.26
16,A26U A74G C98U,-4.46
17,A26G C123G C124U G135U,-1.25
18,G25A C124G,-5.14
19,G25A C124U,-5.31
20,C28G C56A C73G U106C,-4.85
21,A26U G44U C64G C89U U112G,-6.55

row,Variant,polymerase ribozyme fitness (log ratio)
1,A27G C64U C73U,-2.48
2,G25U U33A A68U A111C G127C,-6.82
3,A27U G44U C101G A111C,-7.22
4,C28U C82A C94A U125G,-4.37
5,A27C A95U C114U,-4.15
6,A27G U112A,1.03
7,C28A G71C,-5.69
8,A27C C72A C79U G113U,-6.86
9,G25A C40U G63A G113C U129A,-6.66
10,A26U C62G C124A,-3.42
11,C28U G52C C56G G120A,-2.52
12,G25U C31G G42A A46U C70U G110U G128U,-6.32
13,A26G U38A G39U,-4.5
14,C28A C76G G120A,-4.53
15,A27G U38C C40G C49G G63U A95G U132A,-3.68
16,A26U G117A,-5.38
17,A27G G42A C73G,-5.22
18,A26G C28A G113A,-4.3
19,C28U C62A,-2.73
20,A27U C49G U54C,-3.58
21,A27U C40U C82A,-3.5

row,Variant,polymerase ribozyme fitness (log ratio)
1,A27U C94U U106A G110U,-2.09
2,G25U C80A C88U A121C,-6.51
3,A26G A66C G113C U126G,-6.73
4,A29C A46U U54G U78C G120U,-3.43
5,C28U C56U,-1.85
6,G25U G39U U106A C114U,-5.15
7,G25U A37U,-5.61
8,C28A C72U C123U,-3.7
9,C28U G60C,-3.11
10,G25U C56G G63C A121U,-5.04
11,G25U C34G G36C C97A U112G,-6.79
12,C28G G61A G113C,-5.25
13,C28U G110A,0.874
14,C28G C73U C97U,-3.34
15,A29C A41C C56G U59A G69U C82U A121C G135C,-6.04
16,A27C U54A C64A G113A,-5.44
17,G25A C64U,-4.8
18,A27U U30A G61U C72U A84C C98G A111U,-8.22
19,C28G C53U G93A,-5.35
20,A27C C56A,-3.22
21,A27C C56G,-3.34
